# Test results taken from paper PMC7337054, “Structural basis for differentiation between two classes of thiolase: Degradative vs biosynthetic thiolase” (Journal of Structural Biology: X, 2020).
# B1: PcaF (β-ketoadipyl-CoA thiolase) (Pseudomonas putida KT2440) (protein)
# chain: MHDVFICDAIRTPIGRFGGALASVRADDLAAVPLKALIERNPGVQWDQVDEVFFGCANQAGEDNRNVARMALLLAGLPESIPGVTLNRLCASGMDAVGTAFRAIASGEMELVIAGGVESMSRAPFVMGKAESAYSRNMKLEDTTIGWRFINPLMKSQYGVDSMPETADNVADDYQVSRADQDAFALRSQQKAAAAQAAGFFAEEIVPVRIAHKKGEIIVERDEHLRPETTLEALTKLKPVNGPDKTVTAGNASGVNDGAAAMILASAAAVKKHGLTPRARVLGMASGGVAPRVMGIGPVPAVRKLTERLGIAVSDFDVIELNEAFASQGLAVLRELGVADDAPQVNPNGGAIALGHPLGMSGARLVLTALHQLEKSGGRKGLATMCVGVGQGLALAIERV
# notes: full length, 400 residues plus 22 vector residues; N-terminal His-tag with TEV site, pSGC-His, E. coli BL21(DE3) pLysS; tetramer
# Substrate: CC(=O)CC(=O)SCCNC(=O)CCNC(=O)[C@H](O)C(C)(C)COP(=O)(O)OP(=O)(O)OC[C@H]1O[C@@H](n2cnc3c(N)ncnc32)[C@H](O)[C@@H]1OP(=O)(O)O
# Test: purified protein
# Assay type: biochemical, Pseudomonas putida
# Conditions: thiolytic cleavage, 70 μM CoASH, 25 mM MgCl2, 0.1 M Tris-HCl pH 8.3, 37 °C
protein,measurement,value
B1,Km,67.8 ± 8.2 µM
same,kcat,0.7 ± 0.08 S^−1
